Measured values taken from publication PMC8538552.

Target: protein A from Staphylococcus aureus (Staphylococcus aureus) (UniProt P38507)
Assay: fluorescence intensity of the solution left after immobilization (plate reader); solutions used for functionalization with FITC antibody analysed after the immobilization process on substrate with and without protein A; VICTOR3 plate reader; calibration curve to quantify the antibody that remained in solution

## CD4 (VIT4)-FITC mouse anti-human antibody (Miltenyi Biotec)
  percent of the starting antibody solution immobilised: < 60%
